B1: PRO3724 (scFv)
scFv: DIQMTQSPSSLSASVGDRVTITCQASQSINDYLAWYQQKPGKAPKLLIYKGGTLASGVPSRFSGSGSGTDFTLTISSLQPEDFATYYCQQGYIITDIDNVFGTGTKVTVLGGGGGSGGGGSGGGGSGGGGSQVQLQESGPGLVKPSETLSLTCKASGFSFSSGYDMCWVRQPPGKGLEWIACVVAGSVDITYYASWAKGRVTISKDSSKNQVSLKLSSVTAADTAVYYCARKDAYSDAFNLWGQGTLVTVSS
notes: anti-PDL1 scFv
B2: PRO5036 (scFv)
scFv: DIQMTQSPSSLSASVGDRVTITCQASQSIGTYLAWYQQKPGKPPKLLIYRGGILASGVPSRFSGSGSGTDFTLTISSLQPEDFATYYCQSNFYSDSTTIGPNAFGTGTKVTVLGGGGGSGGGGSGGGGSGGGGSQQLVESGGGLVQPGGSLRLSCAASGFSFNSDYWIYWVRQAPGKGLEWIASIYGGSSGNTQYASWAQGRFTISKDNSKNTVYLQMNSLRAEDTAVYFCARGYVDYGGATDLWGQGTLVTVSS
notes: anti-PDL1 scFv
B3: PRO3723 (scFv)
scFv: DIQMTQSPASLSASVGDRVTITCQASQSIGTYLAWYQQKPGKPPKLLIYRGGILASGVPSRFSGSGSGTDFTLTISSLQPEDFATYYCQSNFYSDSTTIGPNAFGTGTKVTVLGGGGGSGGGGSGGGGSGGGGSEVQLVESGGGLVQPGGSLRLSCAASGFSFNSDYWIYWVRQAPGKGLEWIACIYGGSSGNTQYASWAQGRFTISRDNSKNTVYLQMNSLRAEDTAVYFCARGYVDYGGATDLWGQGTLVTVSS
notes: anti-PDL1 scFv
B4: PRO5054 (antibody)
chain 1: DIQMTQSPSSLSASVGDRVTITCQSSESVYSNNQLSWYQQKPGQPPKLLIYDASDLASGVPSRFSGSGSGTDFTLTISSLQPEDFATYYCAGGFSSSSDTAFGCGTKLTVLGGGGGSGGGGSGGGGSGGGGSEVQLVESGGGLVQPGGSLRLSCAASGFSLSSNAMGWVRQAPGKCLEYIGIISVGGFTYYASWAKGRFTISRDNSKNTVYLQMNSLRAEDSATYFCARDRHGGDSSGAFYLWGQGTLVKVSSEPKSSDKTHTCPPCPAPELLGGPSVFLFPPKPKDTLMISRTPEVTCVVVDVSHEDPEVKFNWYVDGVEVHNAKTKPREEQYNSTYRVVSVLTVLHQDWLNGKEYKCKVSNKALPAPIEKTISKAKGQPREPQVYTLPPCREEMTKNQVSLSCAVKGFYPSDIAVEWESNGQPENNYKTTPPVLDSDGSFFLVSKLTVDKSRWQQGNVFSCSVMHEALHNHYTQKSLSLSPGKGGGGSGGGGSDVQMTQSPSSLSASVGDRVTITCQASQSIGSNLAWYQQKPGKPPKLLIYKGGTLESGVPSRFSGSGSGTDFTLTISSLQPEDFATYYCQSTAGSSRSGNYGYVFGCGTKVTVLGGGGGSGGGGSGGGGSGGGGSQQLVESGGGLVQPGGSLRLSCAASGFSFTNNYYMCWVRQAPGKCLEWIACMLVGAWGNTYYASWANGRFTISKDNSKNTVYLQMNSLRAEDSAVYFCARARDYTWTLGGDPETSGFNLWGQGTLVKVSS
chain 2: not shown
B5: PRO5057 (antibody, human IgG1, kappa)
chain: B4 chain 1
heavy: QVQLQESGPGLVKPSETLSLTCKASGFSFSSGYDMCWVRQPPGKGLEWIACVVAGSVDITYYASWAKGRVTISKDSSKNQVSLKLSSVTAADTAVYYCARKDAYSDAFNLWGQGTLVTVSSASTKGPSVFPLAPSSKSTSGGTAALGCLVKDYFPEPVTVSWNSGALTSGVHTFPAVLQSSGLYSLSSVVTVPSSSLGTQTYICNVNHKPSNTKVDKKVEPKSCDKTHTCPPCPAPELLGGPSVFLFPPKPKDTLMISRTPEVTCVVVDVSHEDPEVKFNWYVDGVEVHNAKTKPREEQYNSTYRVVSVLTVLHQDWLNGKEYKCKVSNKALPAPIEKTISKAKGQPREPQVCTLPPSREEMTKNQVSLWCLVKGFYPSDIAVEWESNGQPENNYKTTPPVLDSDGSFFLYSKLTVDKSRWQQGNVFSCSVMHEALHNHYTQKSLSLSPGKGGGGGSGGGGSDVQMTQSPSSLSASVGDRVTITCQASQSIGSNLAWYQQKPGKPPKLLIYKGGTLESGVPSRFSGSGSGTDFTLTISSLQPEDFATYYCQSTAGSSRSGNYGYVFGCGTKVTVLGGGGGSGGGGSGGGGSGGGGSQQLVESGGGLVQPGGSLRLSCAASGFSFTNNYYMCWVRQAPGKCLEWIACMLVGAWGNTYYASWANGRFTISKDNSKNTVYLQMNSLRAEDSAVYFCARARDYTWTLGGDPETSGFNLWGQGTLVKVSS
light: DIQMTQSPSSLSASVGDRVTITCQASQSINDYLAWYQQKPGKAPKLLIYKGGTLASGVPSRFSGSGSGTDFTLTISSLQPEDFATYYCQQGYIITDIDNVFGQGTKVEIKRTVAAPSVFIFPPSDEQLKSGTASVVCLLNNFYPREAKVQWKVDNALQSGNSQESVTEQDSKDSTYSLSSTLTLSKADYEKHKVYACEVTHQGLSSPVTKSFNRGEC
B6: PRO4682 (antibody, human IgG1, kappa)
chain: QQVVESGGGLVQPGGSLRLSCAVSGIDLNSYAMTWVRQAPGKGLEWIGYIGSASSTYYASWASGRFTISKDNSKNTVYLQMNSLRAEDTAVYFCARGSTYINIWGQGTLVTVSSASTKGPSVFPLAPSSKSTSGGTAALGCLVKDYFPEPVTVSWNSGALTSGVHTFPAVLQSSGLYSLSSVVTVPSSSLGTQTYICNVNHKPSNTKVDKKVEPKSCDKTHTCPPCPAPELLGGPSVFLFPPKPKDTLMISRTPEVTCVVVDVSHEDPEVKFNWYVDGVEVHNAKTKPREEQYNSTYRVVSVLTVLHQDWLNGKEYKCKVSNKALPAPIEKTISKAKGQPREPQVYTLPPCREEMTKNQVSLSCAVKGFYPSDIAVEWESNGQPENNYKTTPPVLDSDGSFFLVSKLTVDKSRWQQGNVFSCSVMHEALHNHYTQKSLSLSPGKGGGGGSGGGGSDVQMTQSPSSLSASVGDRVTITCQASQSIGSNLAWYQQKPGKPPKLLIYKGGTLESGVPSRFSGSGSGTDFTLTISSLQPEDFATYYCQSTAGSSRSGNYGYVFGCGTKVTVLGGGGGSGGGGSGGGGSGGGGSQQLVESGGGLVQPGGSLRLSCAASGFSFTNNYYMCWVRQAPGKCLEWIACMLVGAWGNTYYASWANGRFTISKDNSKNTVYLQMNSLRAEDSAVYFCARARDYTWTLGGDPETSGFNLWGQGTLVKVSS
heavy: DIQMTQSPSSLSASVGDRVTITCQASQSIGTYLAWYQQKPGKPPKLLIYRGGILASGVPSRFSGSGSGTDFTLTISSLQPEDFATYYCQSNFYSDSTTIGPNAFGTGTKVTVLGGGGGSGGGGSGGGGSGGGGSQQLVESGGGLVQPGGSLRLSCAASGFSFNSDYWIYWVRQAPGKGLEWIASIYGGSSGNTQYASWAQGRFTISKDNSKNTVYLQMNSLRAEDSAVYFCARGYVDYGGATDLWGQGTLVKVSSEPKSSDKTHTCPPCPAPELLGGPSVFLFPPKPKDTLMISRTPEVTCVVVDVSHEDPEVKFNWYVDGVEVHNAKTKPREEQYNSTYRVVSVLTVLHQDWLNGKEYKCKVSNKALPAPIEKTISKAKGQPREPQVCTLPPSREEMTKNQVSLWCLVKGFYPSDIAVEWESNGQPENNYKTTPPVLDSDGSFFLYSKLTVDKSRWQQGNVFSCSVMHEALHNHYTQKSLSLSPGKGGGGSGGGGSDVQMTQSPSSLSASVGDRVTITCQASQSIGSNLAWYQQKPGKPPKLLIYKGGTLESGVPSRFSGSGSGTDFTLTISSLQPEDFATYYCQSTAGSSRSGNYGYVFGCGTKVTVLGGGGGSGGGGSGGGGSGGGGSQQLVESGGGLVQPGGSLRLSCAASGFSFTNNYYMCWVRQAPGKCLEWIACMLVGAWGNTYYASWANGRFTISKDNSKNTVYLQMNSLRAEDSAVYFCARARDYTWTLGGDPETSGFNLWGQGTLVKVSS
light: DVQMTQSPSSLSASVGDRVTITCQASQSISSWVSWYQQKPGKPPKLLIYRGGYLESGVPSRFSASGSGTDFTLTISSLQPEDFATYYCQSTDSSTYGGAFGQGTKVEIKRTVAAPSVFIFPPSDEQLKSGTASVVCLLNNFYPREAKVQWKVDNALQSGNSQESVTEQDSKDSTYSLSSTLTLSKADYEKHKVYACEVTHQGLSSPVTKSFNRGEC
B7: PRO4683 (antibody, human IgG1, kappa)
chain: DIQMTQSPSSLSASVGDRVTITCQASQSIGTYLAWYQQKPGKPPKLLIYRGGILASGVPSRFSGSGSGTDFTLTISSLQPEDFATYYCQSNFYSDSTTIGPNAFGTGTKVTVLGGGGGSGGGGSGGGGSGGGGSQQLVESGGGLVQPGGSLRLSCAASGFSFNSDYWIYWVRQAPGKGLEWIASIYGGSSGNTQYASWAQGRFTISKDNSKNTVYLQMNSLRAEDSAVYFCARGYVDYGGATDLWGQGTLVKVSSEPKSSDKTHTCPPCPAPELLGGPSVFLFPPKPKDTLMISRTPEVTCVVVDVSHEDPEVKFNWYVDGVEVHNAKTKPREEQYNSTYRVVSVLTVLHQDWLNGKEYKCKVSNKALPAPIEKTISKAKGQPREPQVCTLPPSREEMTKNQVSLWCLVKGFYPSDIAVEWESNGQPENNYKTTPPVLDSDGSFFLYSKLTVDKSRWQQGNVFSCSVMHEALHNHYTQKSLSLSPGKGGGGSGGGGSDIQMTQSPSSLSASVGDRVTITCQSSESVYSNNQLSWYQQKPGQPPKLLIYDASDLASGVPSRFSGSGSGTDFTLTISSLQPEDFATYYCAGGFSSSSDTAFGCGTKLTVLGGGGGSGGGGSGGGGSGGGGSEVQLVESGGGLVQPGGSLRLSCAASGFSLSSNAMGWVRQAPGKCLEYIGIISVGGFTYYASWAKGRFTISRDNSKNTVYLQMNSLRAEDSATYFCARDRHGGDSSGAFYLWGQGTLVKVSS
heavy: QQVVESGGGLVQPGGSLRLSCAVSGIDLNSYAMTWVRQAPGKGLEWIGYIGSASSTYYASWASGRFTISKDNSKNTVYLQMNSLRAEDTAVYFCARGSTYINIWGQGTLVTVSSASTKGPSVFPLAPSSKSTSGGTAALGCLVKDYFPEPVTVSWNSGALTSGVHTFPAVLQSSGLYSLSSVVTVPSSSLGTQTYICNVNHKPSNTKVDKKVEPKSCDKTHTCPPCPAPELLGGPSVFLFPPKPKDTLMISRTPEVTCVVVDVSHEDPEVKFNWYVDGVEVHNAKTKPREEQYNSTYRVVSVLTVLHQDWLNGKEYKCKVSNKALPAPIEKTISKAKGQPREPQVYTLPPCREEMTKNQVSLSCAVKGFYPSDIAVEWESNGQPENNYKTTPPVLDSDGSFFLVSKLTVDKSRWQQGNVFSCSVMHEALHNHYTQKSLSLSPGKGGGGGSGGGGSDIQMTQSPSSLSASVGDRVTITCQSSESVYSNNQLSWYQQKPGQPPKLLIYDASDLASGVPSRFSGSGSGTDFTLTISSLQPEDFATYYCAGGFSSSSDTAFGCGTKLTVLGGGGGSGGGGSGGGGSGGGGSEVQLVESGGGLVQPGGSLRLSCAASGFSLSSNAMGWVRQAPGKCLEYIGIISVGGFTYYASWAKGRFTISRDNSKNTVYLQMNSLRAEDSATYFCARDRHGGDSSGAFYLWGQGTLVKVSS
light: B6 light
B8: PRO4673 (antibody)
chain 1: DVQMTQSPSSLSASVGDRVTITCQASQSISSWVSWYQQKPGKPPKLLIYRGGYLESGVPSRFSASGSGTDFTLTISSLQPEDFATYYCQSTDSSTYGGAFGCGTKVTVLGGGGGSGGGGSGGGGSGGGGSQQVVESGGGLVQPGGSLRLSCAVSGIDLNSYAMTWVRQAPGKCLEWIGYIGSASSTYYASWASGRFTISKDNSKNTVYLQMNSLRAEDSAVYFCARGSTYINIWGQGTLVKVSSEPKSSDKTHTCPPCPAPELLGGPSVFLFPPKPKDTLMISRTPEVTCVVVDVSHEDPEVKFNWYVDGVEVHNAKTKPREEQYNSTYRVVSVLTVLHQDWLNGKEYKCKVSNKALPAPIEKTISKAKGQPREPQVYTLPPCREEMTKNQVSLSCAVKGFYPSDIAVEWESNGQPENNYKTTPPVLDSDGSFFLVSKLTVDKSRWQQGNVFSCSVMHEALHNHYTQKSLSLSPGKGGGGSGGGGSDIQMTQSPSSLSASVGDRVTITCQSSESVYSNNQLSWYQQKPGQPPKLLIYDASDLASGVPSRFSGSGSGTDFTLTISSLQPEDFATYYCAGGFSSSSDTAFGCGTKLTVLGGGGGSGGGGSGGGGSGGGGSEVQLVESGGGLVQPGGSLRLSCAASGFSLSSNAMGWVRQAPGKCLEYIGIISVGGFTYYASWAKGRFTISRDNSKNTVYLQMNSLRAEDSATYFCARDRHGGDSSGAFYLWGQGTLVKVSS
chain 2: not shown
B9: PRO4914 (antibody, human IgG1, kappa)
heavy 1: QQVVESGGGLVQPGGSLRLSCAVSGIDLNSYAMTWVRQAPGKGLEWIGYIGSASSTYYASWASGRFTISKDNSKNTVYLQMNSLRAEDTAVYFCARGSTYINIWGQGTLVTVSSASVAAPSVFIFPPSDEQLKSGTASVVCLLNNFYPREAKVQWKVDNALQSGNSQESVTEQDSKDSTYSLSSTLTLSKADYEKHKVYACEVTHQGLSSPVTKSFNRGECDKTHTCPPCPAPELLGGPSVFLFPPKPKDTLMISRTPEVTCVVVDVSHEDPEVKFNWYVDGVEVHNAKTKPREEQYNSTYRVVSVLTVLHQDWLNGKEYKCKVSNKALPAPIEKTISKAKGQPREPQVYTLPPCREEMTKNQVSLSCAVKGFYPSDIAVEWESNGQPENNYKTTPPVLDSDGSFFLVSKLTVDKSRWQQGNVFSCSVMHEALHNHYTQKSLSLSPGKGGGGSGGGGSDVQMTQSPSSLSASVGDRVTITCQASQSIGSNLAWYQQKPGKPPKLLIYKGGTLESGVPSRFSGSGSGTDFTLTISSLQPEDFATYYCQSTAGSSRSGNYGYVFGCGTKVTVLGGGGGSGGGGSGGGGSGGGGSQQLVESGGGLVQPGGSLRLSCAASGFSFTNNYYMCWVRQAPGKCLEWIACMLVGAWGNTYYASWANGRFTISKDNSKNTVYLQMNSLRAEDSAVYFCARARDYTWTLGGDPETSGFNLWGQGTLVKVSS
heavy 2: not shown
light 1: DVQMTQSPSSLSASVGDRVTITCQASQSISSWVSWYQQKPGKPPKLLIYRGGYLESGVPSRFSASGSGTDFTLTISSLQPEDFATYYCQSTDSSTYGGAFGQGTKVEIKSSASTKGPSVFPLAPSSKSTSGGTAALGCLVKDYFPEPVTVSWNSGALTSGVHTFPAVLQSSGLYSLSSVVTVPSSSLGTQTYICNVNHKPSNTKVDKKVEPKSC
light 2: DIQMTQSPSSLSASVGDRVTITCQASQSIGTYLAWYQQKPGKPPKLLIYRGGILASGVPSRFSGSGSGTDFTLTISSLQPEDFATYYCQSNFYSDSTTIGPNAFGQGTKVEIKRTVAAPSVFIFPPSDEQLKSGTASVVCLLNNFYPREAKVQWKVDNALQSGNSQESVTEQDSKDSTYSLSSTLTLSKADYEKHKVYACEVTHQGLSSPVTKSFNRGEC

biological target: T1, recombinant human PDL1 (human, UniProt Q9NZQ7 19-238, limits assumed); experiment: SPR
T1 construct: SPR antigen; also called CD274; B7-H1

Row | Kd [nM] | koff [s⁻¹] | kon [M⁻¹ s⁻¹] | Binder
1 | 0.012 | 5.7e-05 | 4.7e+06 | B1
2 | 0.034 | 0.00014 | 4e+06 | B2
3 | 0.0258 | 7.95e-05 | 3.08e+06 | B3

biological target: human PD-L1 on the cell surface (human, UniProt Q9NZQ7 19-290); experiment: cell-based or functional assay

Row | PD-L1 driven EC50 [nM], phagocytosis of H292 cells [nM] | Binder
4 | 0.09 | B4
5 | 0.13 | B5
6 | 0.14 | B6
7 | 0.19 | B7
8 | 0.18 | B8
9 | 0.071 | B9

biological target: human CD47 on the cell surface (human, UniProt Q08722 19-323); experiment: cell-based or functional assay

Row | CD47 driven EC50 [nM], phagocytosis of H292 cells [nM] | CD47 driven EC50 [nM], phagocytosis of RBCs [nM] | Binder
10 | 9.3 | 2.78 | B6
11 | 5.33 | 2.69 | B7
12 | 11 |  | B8
13 | 25.2 | 37.4 | B9
